experiment: yeast display, Sf9 membrane polyspecificity reagent, FACS + sequencing; frameworks hold sequencing errors
How it was run: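 Polyreactivity labels are assigned by the sorting gate from which each nanobody was recovered. The gates were low and high (top ~1%), set on anti-HA fluorescence for expression and streptavidin fluorescence for reagent binding. Before sorting, galactose-induced (36–48 hours) yeast display cells were stained for 1 hour at 4 °C with 10% biotinylated, detergent-solubilized Sf9 membrane reagent.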

Row | Sequence | polyreactivity (PSR sort gate)
1 | QVQLVESGGGLVQAGGSLRLSCAASGFIFRWYAMGWYRQAPGKERELVAAISRSGDSTYYADSVKGRFTISRDNAKNTVYLQKNSLKPEDTAVYYCAADDRYYTYGYDYWGQGTQVTVSS | low polyreactivity
2 | QVQLVESGGGLVQAGGSLRLSCAASGFIFRWYAMGWYRQAPGKERELVAAISSSSGSTYYADSVKGRFTISRDNAKNTVYLQMNSLKPEDTAVYYCAAESNRRFEGEYWGQGTQVTVSS | high polyreactivity
3 | QVQLVESGGGLVQAGGSLRLSCAASGFIFRWYAMGWYRQAPGKERELVAGISASGGSTYYADSVKGRFTISRDNAKNTVYLQMNSLKPEDTAVYYCAAYRRNSRWELDYWGQGTQVTVSS | high polyreactivity
4 | QVQLVESGGGLVQAGGSLRLSCAASGFIFRYNTMGWYRQAPGKERELVATINRSGGSTYYADSVKGRFTISRDNAKNTVYLQMNSLKPEDTAVYYCAARSGTRWRSGYYYWGQGTHVTVSS | high polyreactivity
5 | QVQLVESGGGLVQAGGSLRLSCAASGFIFRYYALGWYRQAPGKERELVAAIDYSGGSTNYADSVKGRFTISRDNAKNTVYLQMNSLKPEDNAVYYCNAEYTWHRGYDYWGQGTQVTVSS | low polyreactivity
6 | QVQLVESGGGLVQAGGSLRLSCAASGFIFRYYAMGWYIQAPGKERELVATITRSGGSTYYADSVKGRFTLSRDNAKNTVYLQMNSLKPEDTAVYYCAADIYWYRGYGYWGQRTQVTVSS | high polyreactivity
7 | QVQLVESGGGLVQAGGSLRLSCAASGFIFRYYAMGWYRPAPGKERELVAAISASGGSTYYADSVKGRCTISRDNAKNSDYLLMNSLKPEDTAVYYCATYYQKYRSEYWGQGTQVTVSS | high polyreactivity
8 | QVQLVESGGGLVQAGGSLRLSCAASGFIFRYYAMGWYRQAPGKERELVAAISASGVSTYYADSVKGRFTISRDNAKNTVYLQMNSLKPEDTAVYYCNKVTRGGYDYWGQGSQVTVSS | high polyreactivity
9 | QVQLVESGGGLVQAGGSLRLSCAASGFIFRYYAMGWYRQAPGKERELVAAISSGGRTSYADSVKGRFTISRDNAKNTVYLQMNSLKPEDTAVYYCAADRWRGLFYYGKDYWGQGTQVTVSS | high polyreactivity
10 | QVQLVESGGGLVQAGGSLRLSCAASGFIFRYYAMGWYRQAPGKERELVAAISWSGGSTNYADSVKGRFTISRDNAKNTVYLQMNSLKPEDTAVYYCATRYRRWSTVVQDDYWGQGTQVTVSS | low polyreactivity
11 | QVQLVESGGGLVQAGGSLRLSCAASGFIFRYYAMGWYRQAPGKERELVAAITKSGGRTFYADSVKGRFTISRDNAKNTVYLQMNSLKPEDTAVYYCAARANGRDDYWGQGTQVTVSS | high polyreactivity
12 | QVQLVESGGGLVQAGGSLRLSCAASGFIFRYYAMGWYRQAPGKERELVARISSSGGRTYYADSVKGRFTISRDNAKNTVYLQMNSLKPEDTAVYYCNTADYHGRWAFAWYGDYWGQGTQVTVSS | high polyreactivity
13 | QVQLVESGGGLVQAGGSLRLSCAASGFIFRYYAMGWYRQAPGKERELVASIDWSGGNTYYADSVKGRFTISRDNAKNTVYLQMNSLKPEDTAVYYCNRRGMDWGQVTQVTVSS | low polyreactivity
14 | QVQLVESGGGLVQAGGSLRLSCAASGFIFRYYAMGWYRQAPGKERELVATISASGGRTYYADSVKGRFTISRDNAKNTVYLQMNSLKPEDTAVYYCAVRPYWLGTYAPVAFDYWGQGTQVTVSS | high polyreactivity
15 | QVQLVESGGGLVQAGGSLRLSCAASGFIFRYYAMGWYRQAPGKERELVATISYRGASTYYADSVKGRFTISRDNAKNTVYLQMNSLKPEDTAVYYCAADWGWYWYIYDYWGQGTQVTVSS | low polyreactivity
16 | QVQLVESGGGLVQAGGSLRLSCAASGFIFRYYAMGWYRQAPGKEREMVAAISRSGGSTYYADSVKGRFTISRDNANNTVYLQMKSLKPEDTAVYYCAALQSRSWYQFNYWGQGTQVTVSS | high polyreactivity
17 | QVQLVESGGGLVQAGGSLRLSCAASGFIFSAYAMGWYRQAPGKERELVAAITKRGGTTYYADSVKGRFTISRDNAKNTVYLQMNSLKPEDTAVYYCATRQLSKVKDMDYWGQGTQVTVSS | high polyreactivity
18 | QVQLVESGGGLVQAGGSLRLSCAASGFIFSEYAMGWYRQAPGKDMELVAAISSGGNTYYADSVKGRFTISRDNAKNTVYLQMNSLKTEDTAVYYCNADNYAFYTQRPLDGSATYDYWGQGTQVTVSS | low polyreactivity
19 | QVQLVESGGGLVQAGGSLRLSCAASGFIFSGNAMGWYRQAPGKERELVAAISGRGGRTYYADSVKGRFTISRDNAKNTVYLQMNSLKPEDTAVYYCAADNPYLGRKFDYWGQGTQVTVSS | high polyreactivity
20 | QVQLVESGGGLVQAGGSLRLSCAASGFIFSGNAMGWYRQAPGKERELVAAISSGGSTNYADSVKGRFTISRDNAKNTVYLQMNSLKPEDTAVYYCNADSPERIPVDLENDYWGQGTQVTVSS | low polyreactivity
21 | QVQLVESGGGLVQAGGSLRLSCAASGFIFSGNAMGWYRQAPGKERELVAAITRGGITYYADSVKGRFTISRDNAKNTVYLQMNSLKPEDTAVYYCNALGFGSNYDYWGQGTQVTVSS | high polyreactivity
22 | QVQLVESGGGLVQAGGSLRLSCAASGFIFSGYAMGWYRQAPGKERELVAAITRSGSRTYYADSVKGRFTISRDNAKNTVYLQMNSLKPEDTAVYYCAKDKPKYGISTMDYWGQGTQVTVSS | high polyreactivity
23 | QVQLVESGGGLVQAGGSLRLSCAASGFIFSHNAMGWYRQAPGKERELVAAISDGGGRTYYADSVKGRFTISRDNAKNTVYLQMNSLKPEDTEVYYCAVLWPYYERYYYWGQGTQVTVSS | high polyreactivity
24 | QVQLVESGGGLVQAGGSLRLSCAASGFIFSKNVMGWYRQATGKERELVALINRSGGTTYYADSVKGRFTISRDNAKNTVYLQMNSLKPEDTAVYYCAARRYGYTSITWYDYLGQGTQVTVSS | high polyreactivity
25 | QVQLVESGGGLVQAGGSLRLSCAASGFIFSKYGMGWYRQAPGKERELVAAISIRGGNTYYADSVKGRFTISRDNAKNTVYLQMNSLKPEDTAVYYCNALSYGRYLNYRGGMDYWGQGTQVTVSS | high polyreactivity
26 | QVQLVESGGGLVQAGGSLRLSCAASGFIFSLNAMGWYRQAPGKEREFVASITWSGTRTYYADSVKGRFTISRDNAKNTVYLQMNSLKPEDTAVYYCAARTKRSYEYQAFYYWGQGTQVTVSS | high polyreactivity
27 | QVQLVESGGGLVQAGGSLRLSCAASGFIFSNNAMGWYRQAHGKERELVAAISKSGGGTSYADSVKGRFTISRDNAKNTVYFQMNSLKPEDSAVYYCAARFRQFRVDYWGQGTQVTVSS | high polyreactivity
28 | QVQLVESGGGLVQAGGSLRLSCAASGFIFSNNAMGWYRQAPGKERELVAAITASGGRTYYADSVKGRFTISRDNAKNTVYLQMNSLKPEDTSVYYCAAALYDIMGYWGQGTQLTVSS | high polyreactivity
29 | QVQLVESGGGLVQAGGSLRLSCAASGFIFSNNAMGWYRQAPGKERELVAAITSSGGRTYYADSVKGRFTISRDNAKNTVYLQMNSLKPEDTAVYYCAAVWRTSVWTKYGYWGQGTQVTVSS | high polyreactivity
30 | QVQLVESGGGLVQAGGSLRLSCAASGFIFSPNAMGWYRQAPGKEREFVAAIRYSGTSTSYADSVKGRFTISRDNAKNTVYLQMNSLKPEDTAVYYCNAQWRFSRGYTYNYWGQGTQVTVSS | high polyreactivity

Source: the nanobody polyreactivity screen of Harvey et al. (2022)
